The target in series [1] is T1, P. hybrida glypS (wt) EPSPS (Petunia hybrida, glyphosate sensitive, wild type) (Petunia hybrida, UniProt P11043).
T1 sequence (P11043 73-516): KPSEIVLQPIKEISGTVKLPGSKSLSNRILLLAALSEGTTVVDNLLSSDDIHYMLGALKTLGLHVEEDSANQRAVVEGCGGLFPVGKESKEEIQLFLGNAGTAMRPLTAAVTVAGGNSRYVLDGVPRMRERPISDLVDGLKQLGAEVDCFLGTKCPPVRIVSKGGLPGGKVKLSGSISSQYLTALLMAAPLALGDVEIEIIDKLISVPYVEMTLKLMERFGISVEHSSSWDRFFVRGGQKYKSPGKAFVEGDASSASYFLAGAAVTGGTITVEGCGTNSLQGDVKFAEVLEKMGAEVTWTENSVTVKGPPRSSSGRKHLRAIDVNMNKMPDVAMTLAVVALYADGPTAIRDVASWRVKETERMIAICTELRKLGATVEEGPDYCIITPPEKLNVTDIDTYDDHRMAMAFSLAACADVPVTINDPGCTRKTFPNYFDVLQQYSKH
Description: kinetic characterization of EPSP synthase (Table 4). The series is classed as biochemical. The conditions noted are these: read-out: apparent Km for PEP; saturating shikimate-3-phosphate. As for the experimental part:
Final sample volumes are approximately 0.5 ml.

Substrate in series [2]: C=C(OP(=O)(O)O)C(=O)O
The experiment in a line: purified protein, by the assay type. The conditions noted are these: other: saturating shikimate-3-phosphate; 25.0 °C.

Substrate in series [3]: C=C(OP(=O)(O)O)C(=O)O
The experiment in a line: cells, lysate or membranes named. The conditions noted are these: other: saturating shikimate-3-phosphate; 25.0 °C.

Substrate in series [4]: C=C(OP(=O)(O)O)C(=O)O
Description: kinetic characterization of EPSP synthase (Table 4). In kind it is biochemical, Petunia hybrida. The conditions noted are these: other: saturating shikimate-3-phosphate; 25.0 °C.
Description: Preparation of extracts and radiometric EPSP synthase assays are performed using methods adapted from published procedures (Padgette et al., J. Biol. Chem. 266:22364-22369 (1991). Crown regions are dissected from whole plants, pulverized under liquid nitrogen with a mortar and pestle, then stored at −80° C. prior to extraction. Homogenates are prepared from 0.5 g tissue per sample in 25 ml extraction buffer (100 mM TrisCl, 10% glycerol, 1 mM EDTA, 1 mM benzamidine, 1 mM dithiothreitol, 1 mM 4-(2-aminoethyl)-benzenesulfonyl floride HCl, 0.1 mM leupeptin, pH 7.4) at 4° C. using a model PT3000 Polytron homogenizer (Brinkman Instuments Inc., Westbury, N.Y.). Debris is removed by 0.2 μm filtration, then the resulting supernatant is concentrated and desalted using an Ultrafree-15 centrifugal filtration unit (cat.#UFV2-BGC-10, Millipore Corp., Bedford, Mass.). […] Protein concentrations are determined spectrophotometrically using the Bio-Rad protein assay reagent (cat.#500-0006, Bio-Rad Laboratories, Hercules, Calif.). EPSPS specific activities are determined by assaying 10 μl extract at 25° C. for 5-15 min. […] Reactions are quenched with the addition of 50 μl 9:1 ethanol: 0.1 M acetic acid. […]

Broadly, the Km is the concentration of substrate that gives half-maximal velocity. On to `C=C(OP(=O)(O)O)C(=O)O` [PEP, phosphoenolpyruvate], for which the Km in series [1] stood at 5 µM.

B1: E. indica glypS EPSPS (Eleusine indica, naturally occurring glyphosate sensitive, wild type) (Eleusine indica) (protein)
chain: AGAEEVVLQPIKEISGVVKLPGSKSLSNRILLLSALAEGTTVVDNLLNSEDVHYMLGALKTLGLSVEADKAAKRAVVVGCGGKFPVEKDAKEEVQLFLGNAGTAMRPLTAAVTAAGGNATYVLDGVPRMRERPIGDLVVGLKQLGADVDCFLGTDCPPVRVKGIGGLPGGKVKLSGSISSQYLSALLMAAPLALGDVEIEIIDKLISIPYVEMTLRLMERFGVKAEHSDSWDRFYIKGGQKYKSPKNAYVEGDASSASYFLAGAAITGGTVTVEGCGTTSLQGDVKFAEVLEMMGAKVTWTETSVTVTGPQREPFGRKHLKAIDVNMNKMPDVAMTLAVVALFADGPTAIRDVASWRVKETERMVAIRTELTKLGASVEEGPDYCIITPPEKLNVTAIDTYDDHRMAMAFSLAACADVPVTIRDPGCTRKTFPDYFDVLSTFVKN
In the case of B1, the Km in series [2] was found to be 5 µM.

B2: E. indica glypR (Pro-Ser) EPSPS (Eleusine indica, naturally occurring glyphosate resistant, serine for proline at position 107, SEQ ID NO:7) (Eleusine indica) (protein)
chain: AGAEEVVLQPIKEISGVVKLPGSKSLSNRILLLSALAEGTTVVDNLLNSEDVHYMLGALKTLGLSVEADKAAKRAVVVGCGGKFPVEKDAKEEVQLFLGNAGTAMRSLTAAVTAAGGNATYVLDGVPRMRERPIGDLVVGLKQLGADVDCFLGTDCPPVRVKGIGGLPGGKVKLSGSISSQYLSALLMAAPLALGDVEIEIIDKLISIPYVEMTLRLMERFGVKAEHSDSWDRFYIKGGQKYKSPKNAYVEGDASSASYFLAGAAITGGTVTVEGCGTTSLQGDVKFAEVLEMMGAKVTWTETSVTVTGPQREPFGRKHLKAIDVNMNKMPDVAMTLAVVALFADGPTAIRDVASWRVKETERMVAIRTELTKLGASVEEGLDYCIITPPEKLNVTAIDTYDDHRMAMAFSLAACADVPVTIRDPGCTRKTFPDYFDVLSTFVKN
Consider B2, for which the Km in series [2] amounted to 7 µM.

B3: Z. mays glypS (wt) EPSPS (Zea mays, glyphosate sensitive, wild type) (Zea mays) (protein)
chain: AGAEEIVLQPIKEISGTVKLPGSKSLSNRILLLAALSEGTTVVDNLLNSEDVHYMLGALRTLGLSVEADKAAKRAVVVGCGGKFPVEDSKEEVQLFLGNAGTAMRPLTAAVTAAGGNATYVLDGVPRMRERPIGDLVVGLKQLGADVDCFLGTDCPPVRVNGIGGLPGGKVKLSGSISSQYLSALLMAAPLALGDVEIEIIDKLISIPYVEMTLRLMERFGVKAEHSDSWDRFYIKGGQKYKSPKNAYVEGDASSASYFLAGAAITGGTVTVEGCGTTSLQGDVKFAEVLEMMGAKVTWTETSVTVTGPPREPFGRKHLKAIDVNMNKMPDVAMTLAVVALFADGPTAIRDVASWRVKETERMVAIRTELTKLGASVEEGPDYCIITPPEKLNVTAIDTYDDHRMAMAFSLAACAEVPVTIRDPGCTRKTFPDYFDVLSTFVKN
With B3, in series [3], the Km stood at 5 µM.

B4: P. hybrida EPSPS variant glypR (Pro-Ser) (Petunia x hybrida; P178S) (protein)
chain: KPSEIVLQPIKEISGTVKLPGSKSLSNRILLLAALSEGTTVVDNLLSSDDIHYMLGALKTLGLHVEEDSANQRAVVEGCGGLFPVGKESKEEIQLFLGNAGTAMRSLTAAVTVAGGNSRYVLDGVPRMRERPISDLVDGLKQLGAEVDCFLGTKCPPVRIVSKGGLPGGKVKLSGSISSQYLTALLMAAPLALGDVEIEIIDKLISVPYVEMTLKLMERFGISVEHSSSWDRFFVRGGQKYKSPGKAFVEGDASSASYFLAGAAVTGGTITVEGCGTNSLQGDVKFAEVLEKMGAEVTWTENSVTVKGPPRSSSGRKHLRAIDVNMNKMPDVAMTLAVVALYADGPTAIRDVASWRVKETERMIAICTELRKLGATVEEGPDYCIITPPEKLNVTDIDTYDDHRMAMAFSLAACADVPVTINDPGCTRKTFPNYFDVLQQYSKH
As for B4, the Km in series [4] was found to be 44 µM.

B5: P. hybrida EPSPS variant glypR (Gly-Ala) (Petunia x hybrida; G173A) (protein)
chain: KPSEIVLQPIKEISGTVKLPGSKSLSNRILLLAALSEGTTVVDNLLSSDDIHYMLGALKTLGLHVEEDSANQRAVVEGCGGLFPVGKESKEEIQLFLGNAATAMRPLTAAVTVAGGNSRYVLDGVPRMRERPISDLVDGLKQLGAEVDCFLGTKCPPVRIVSKGGLPGGKVKLSGSISSQYLTALLMAAPLALGDVEIEIIDKLISVPYVEMTLKLMERFGISVEHSSSWDRFFVRGGQKYKSPGKAFVEGDASSASYFLAGAAVTGGTITVEGCGTNSLQGDVKFAEVLEKMGAEVTWTENSVTVKGPPRSSSGRKHLRAIDVNMNKMPDVAMTLAVVALYADGPTAIRDVASWRVKETERMIAICTELRKLGATVEEGPDYCIITPPEKLNVTDIDTYDDHRMAMAFSLAACADVPVTINDPGCTRKTFPNYFDVLQQYSKH
On to B5, for which the Km in series [4] amounted to 200 µM.

B6: P. hybrida EPSPS variant glypR (Gly-Ala, Pro-Ser) (Petunia x hybrida; G173A/P178S) (protein)
chain: KPSEIVLQPIKEISGTVKLPGSKSLSNRILLLAALSEGTTVVDNLLSSDDIHYMLGALKTLGLHVEEDSANQRAVVEGCGGLFPVGKESKEEIQLFLGNAATAMRSLTAAVTVAGGNSRYVLDGVPRMRERPISDLVDGLKQLGAEVDCFLGTKCPPVRIVSKGGLPGGKVKLSGSISSQYLTALLMAAPLALGDVEIEIIDKLISVPYVEMTLKLMERFGISVEHSSSWDRFFVRGGQKYKSPGKAFVEGDASSASYFLAGAAVTGGTITVEGCGTNSLQGDVKFAEVLEKMGAEVTWTENSVTVKGPPRSSSGRKHLRAIDVNMNKMPDVAMTLAVVALYADGPTAIRDVASWRVKETERMIAICTELRKLGATVEEGPDYCIITPPEKLNVTDIDTYDDHRMAMAFSLAACADVPVTINDPGCTRKTFPNYFDVLQQYSKH
Consider B6, for which the Km in series [4] worked out at 340 µM.
